Test: soluble on expression in E. coli; label from the status in PepcDB or PDB records

Sequence: QHQEAGAGDLCALCGEHLYVLERLCVNGHFFHRSCFRCHTCEATLWPGGYEQHPGDGHFYCLQHLPQTD
- soluble on expression in E. coli: soluble

Sequence: TDAFFFAGFLPNAAAARKTRLETLRGVPGTLVFYESPKRLAASLRDMAEVLGGERPAALCRELTKKFEETRRDTLAGLAEALAEAPVKGEVVLLVDRARSG
- soluble on expression in E. coli: not soluble

Sequence: TDLDAVRIKVDTVNAKPGDTVRIPVRFSGIPSKGIANCDFVYSYDPNVLEIIEIEPGELIVDPNPTKSFDTAVYPDRKMIVFLFAEDSGTGAYAITEDGVFATIVAKVKSGAPNGLSVIKFVEVGGFANNDLVEQKTQFFDGGVNVG
- soluble on expression in E. coli: soluble

Sequence: MAHHHHHHMAAVFSTDASPSADVAVTAQFRVARGEYPTLAVLKQVPLLDDEALRLAMEKLAARRAGHTAGGGADGEPEGVDYTRYTTVDGEGTQACPCKDTGVWPAWVFSPGIQLMARRLRVRELSLEFLSLIDSMMAVNPADRPTAEAVLLDSPVFGMRMPWWEKVVEKAVRRVVEGKENVLLDVCVGDSDEEEEEDEEEAALVRRTMMPLVLPAENHGYVPHNVIHWWNVDLTRGEPDHTKWLSPTSLLASLLTTVRDLTGLEAARDAQDPVLREVPLYTATSLQFVERVCVPVRGTDVSARKIEDGPLFRELEAGGHSTGFFIHVQIRIRAIARAGQVLMANGWAEEEDVADQEEMARRAMEELVATTEKWLLSREATTGVAALHVLPWVSWHLNEEEAGTDGSTQHCFIVEYAAAGPGDGQPQPCANESSVTGEVSSVFRDWRANLTDGLQRLCCDDATAPDETTHDGASNAPRGGLRLEEKLEAMLDALEAVESELMERQKRNEAHQGLLQDHVVHWLSVRAAPSVERCMETLQGVCGGGDVSSQQIHEWILTTVFTSEGAMALMPVLRI
- soluble on expression in E. coli: not soluble

Sequence: MAHHHHHHMFRRLSVCVPFATTARFYTPSEELKKLYASDFERAQFPANIVPSDSVTFAKFLYKAVEPKGSFDTILKDFQTIAAAIPKLPVFWQRTVVVSEVSEFKSLSAPTTFTLEWMQSNGMLDLLPDVAEVYETYVNAKMKRVTAKIYVAAGKEQDRALVDKAKKVAEQVVKDNQQFAGYTLVPKVLVDRSIVEGFAVDVQGTYVNEAVGRKKETQASGEVDYTTIPPPRLSKTTWEDNIETEVLRKYLDSLSLYDAEELKSGV
- soluble on expression in E. coli: soluble

Sequence: MGSDKIHHHHHHMNRTMSSINVLSLPVFNRDASGYDALRRGLIPCFDAFYGTALDLIDDWRDAEKLRVLDLGAGTGLFTAMLLTRHPDAQIHLIDASEKMLEQARKRFDGNPAITYAVADMANTELGGPWDLIISALAIHHLEDIGKKHLFGEIRGALSEGGLFVNVEQVLGHDPEVEARYARTWLQQVRRLGVAEVEIAKAHERMSHDRCSPLENQLQWMRDTGFCEIDCSFKAWRFAVLSGRR
- soluble on expression in E. coli: not soluble

Sequence: LPVPAGSRFEARVLGETRAMCCPGCQAVAEAIVAGGLESYYRHRSENAANPEALPKALSEELQLYDRPDVQGGFVRHEGELAETSLMIEGISCAACGWLIEKHLRQLPGVAEARLNLSNHRLHVRWQDSQLPLSQLLGELRQIGYAGHPYQPDRATERLAMENRR
- soluble on expression in E. coli: not soluble

Sequence: MARKNQKAPWEPEEEIIWVSKSEMKRDMEELQKLGEELVGLKPAVLEKFPLSEDLREAIADAQRFKNEARRRQLQRIGKLMRYEDPEPIQAALDKVRNKHSQATAALHKLEMLRDRVVEEGDKAIDDVMELYPEADRQRLRQLARQAAKEKKAGKPAKSYREIFQILKALNEEE
- soluble on expression in E. coli: soluble

Sequence: MSRPRKRLAGTSGSDKGLSGKRTKTENSGEALAKVEDSNPQKTSATKNCLKNLSSHWLMKSEPESRLEKGVDVKFSIEDLKAQPKQTTCWDGVRNYQARNFLRAMKLGEEAFFYHSNCKEPGIAGLMKIVKEAYPDHTQFEKNNPHYDPSSKEDNPKWSMVDVQFVRMMKRFIPLAELKSYHQAHKATGGPLKNMVLFTRQRLSIQPLTQEEFDFVLSLEEKEPS
- soluble on expression in E. coli: soluble

Sequence: EAIKWDKAPCRFCGTGCGVLVGTQQGRVVACQGDPDAPVNRGLNCIKGYFLPKIMYGKDRLTQPLLRMKNGKYDKEGEFTPITWDQAFDVMEEKFKTALKEKGPESIGMFGSGQWTIWEGYAASKLFKAGFRSNNIDPNARHCMASAVVGFMRTFGMDEPMGCYDDIEQADAFVLWGANMAEMHPILWSRITNRRLSNQNVTVAVLSTYQHRSFELADNGIIFTPQSDLVILNYIANYIIQNNAINQDFFSKHVNLRKGATDIGYGLRPTHPLEKAAKNPGSDASEPMSFEDYKAFVAEYTLEKTAEMTGVPKDQLEQLAQLYADPNKKVISYWTMGFNQHTRGVWANNLVYNLHLLTGKISQPGCGPFSLTGQPSACGTAREVGTFAHRLPADMVVTNEKHRDICEKKWNIPSGTIPAKIGLHAVAQDRALKDGKLNVYWTMCTNNMQAGPNINEERMPGWRDPRNFIIVSDPYPTVSALAADLILPTAMWVEKEGAYGNAERRTQFWRQQVQAPGEAKSDLWQLVQFSRRFKTEEVWPEDLLAKKPELRGKTLYEVLYATPEVSKFPVSELAEDQLNDESRELGFYLQKGLFEEYAWFGRGHGHDLAPFDDYHKARGLRWPVVNGKETQWRYSEGNDPYVKAGEGYKFYGKPDGKAVIFALPFEPAAEAPDEEYDLWLSTGRVLEHWHTGSMTRRVPELHRAFPEAVLFIHPLDAKARDLRRGDKVKVVSRRGEVISIVETRGRNRPPQGLVYMPFFDAAQLVNKLTLDATDPLSKETDFKKCAVKLEKV
- soluble on expression in E. coli: soluble

Sequence: MRRSGNYNPSRWDVNFIQSLLSDYKEDKHVIRASELVTLVKMELEKETDQIRQLELIDDLQRMGLSDHFQNEFKEILSSIYLDHHYYKNPFPKEERDLYSTSLAFRLLREHGFQVAQEVFDSFKNEEGEFKESLSDDTRGLLQLYEASFLLTEGETTLESAREFATKFLEEKVNEGGVDGDLLTRIAYSLDIPLHWRIKRPNAPVWIEWYRKRPDMNPVVLELAILDLNIVQAQFQEELKESFRWWRNTGFVEKLPFARDRLVECYFWNTGIIEPRQHASARIMMGKVNALITVIDDIYDVYGTLEELEQFTDLIRRWDINSIDQLPDYMQLCFLALNNFVDDTSYDVMKEKGVNVIPYLRQSWVDLADKYMVEARWFYGGHKPSLEEYLENSWQSISGPCMLTHIFFRVTDSFTKETVDSLYKYHDLVRWSSFVLRLADDLGTSVEEVSRGDVPKSLQCYMSDYNASEAEARKHVKWLIAEVWKKMNAERVSKDSPFGKDFIGCAVDLGRMAQLMYHNGDGHGTQHPIIHQQMTRTLFEPFA
- soluble on expression in E. coli: soluble

Sequence: MGSDKIHHHHHHMNVHVAVQTQAHRLDSNTAAFARDVLDGLTKPQKELSPKYFYDDTGSELFVEITRLPEYYPTRTELGILRDRAAEIAALIPPDAAIVEFGAGATTKIRLLLAAHQVAAYVPVDISGDFIITQAEALQRDFPQLAVHPLAADFTKPFALPPAVRDLPKVGFFPGSTIGNFEPQEARRFLESARDILGRGARMIIGVDLEKDENVLVPAYDDAAGVTGKFNLNLLIRINRELGADFDLSAFAHRAIYNRDQHRIEMHLVSLRDQSVHLFGERIGFRAGESIHTENSYKYSLERFRALAQQAGWTPARCWTDADAMFSVHAIETNGSRV
- soluble on expression in E. coli: not soluble

Sequence: MGNLFCCVLVKQSDVAVKERFGKFQKVLNPGLQFVPWVIGDYVAGTLTLRLQQLDVQCETKTKDNVFVTVVASIQYRVLADKASDAFYRLSNPTTQIKAYVFDVIRACVPKLNLDDVFEQKNEIAKSVEEELDKAMTAYGYEILQTLIIDIEPDQQVKRAMNEINAAARMRVAASEKAEAEKIIQIKRAEGEAESKYLSGLGIARQRQAIVDGLRDSVLGFAGNVPGTSAKDVLDMVMMTQYFDTMRDIGATSKSSAVFIPHGPGAVSDVAAQIRNGLLQANNAS
- soluble on expression in E. coli: soluble

Sequence: AHHHHHHGSLGRLARWLRLYGYDTLYGIEDDNEILRIAEEEGRIILTRDVELYRQAQVRNLRAILITSNSFEEQVKQLMMERVEFSELFPENARCPKCNGVIRSAKKEEVKGKVPENVYNSYNEFYICTSCGQIYWPGRQWREMLKMDKKIKANKL
- soluble on expression in E. coli: soluble

Sequence: MGSDKIHHHHHHAGSCTGNFEEYNTNQFQIHEADPSTLMKSMIETIVNIQQNDSQMMDQMVGQLGGYLTCANVWSGTNFGTFNQSDAWNAGPWNTNFEKIYGNFFQIQEATNESGHYYAFARMIRAITMLRVADCYGPMPYSQVKKGNFYVAYDTEEQVYKNIMEDFASAANVLYNYYKDTNGNAPLASNDPVFSGNYANWARLANSMRLRVAIRISTAYPEMAKENAEAAASHEAGLIEANNDNAMMDCGSQTNPYQLAAVSWGDLRVNANIVDYMNGYGDPRMSKYFNHSTFTGHTQEYVGMRSGEDGFAKSDVAGYSIPAITGTSKLLVFCAAETAFLRAEGKLKNWSVGNKSAKEYYEEGIKLSMEQYGTTMPDNYLTNTEKPTVSHNNDPRGHAYTISNTVAVAWNDNNEEENLQRIITQKWIANYPLGLEAWAEYRRTGYPELYPCIDNLSPSGVDSKRGMRRLRFPYTEVQNNHSNYQQGVSYLKNGGPDNEATDLSWGKTN
- soluble on expression in E. coli: not soluble

Sequence: MIKIAPSILSADFSKLGEEIKDVEKGGADYIHVDVMDGHFVPNITIGPLIVEAIRPITSLPLDVHLMIENPDNYIPTFAKAGADIITVHVEACPHLHRTIQLIKSHGIKAGVVLNPHTPVSVIEHVLEDIDMVLLMTVNPGFGGQKFIHSVLPKIKQVAEMVKERNLEVEIEVDGGVNAETARLCVEAGANVLVAGSAVYNQKDRGEAIRVIRG
- soluble on expression in E. coli: soluble

Sequence: MGSDKIHHHHHHSDIATSVTQGGEQRLADGGYFELGASVYGTNQLDIRQTEHESIQPSLLISGMYQYKGLFAEMVHQSQDGINFGINLWSSNNWSLDLLAVNYQGSAGRSENTELSQLDEDGRNAYLMETDSIFIGAGFRVTRYWDDHYVFQYRIVSDYFDDQGISTTARLGKSWQVRNWNFHALASIEYASTKLSRNLFGVESMEATELFPEYRPSSAVTYGMELGVAYPLSEKLVFRTVYRLNVLSKEITASPFNQADYGSFFNASFSYVF
- soluble on expression in E. coli: not soluble

Sequence: MSLYKAVFSDFNGTLLTSQHTISPRTVVVIKRLTANGIPFVPISARSPLGILPYWKQLETNNVLVAFSGALILNQNLEPIYSVQIEPKDILEINTVLAEHPLLGVNYYTNNDCHARDVENKWVIYERSVTKIEIHPFDEVATRSPHKIQIIGEAEEIIEIEVLLKEKFPHLSICRSHANFLEVMHKSATKGSAVRFLEDYFGVQTNEVIAFGDNFNDLDMLEHVGLGVAMGNAPNEIKQAANVVTATNNEDGLALILEEKFPEEGHHHHHH
- soluble on expression in E. coli: soluble

Sequence: MGSDKIHHHHHHMKFNTTIKRLQEAVNKVILAVPAKSLDARFDNINLTLENGMLTMFATDGELSITTNCDVASTDKGNIAIRARTLQDFLRSMYETDVTFDIERQSIGELGTIHIATDKGRYRIPCTFTTKPESQKRNFDLSIELQQNELQDMIHKTLFACSVDGMRPAMMGVLFEFDEEYITAVSTDGHRLVRCRKKPGVTVAEKQKIVVPARVLSIIQRMLTNEEVKMTIDSERRNVKFKTATMELESALIVEPYPNYEAVIPVENEKQLVTDRSQLHDSVKRVGRFSSIGDLKISAQDSQIKVMAENASEGESAQEELPCTFTGEEITIGFNAKFVEAALSHIETEQVSIEMSSPTTAVLFKPKYEERQDDLIILVMPVRINN
- soluble on expression in E. coli: not soluble

Sequence: MVNLDAEIYEHLNKQIKINELRYLSSGDDSDTFLCNEQYVVKVPKRDSVRISQKREFELYRFLENCKLSYQIPAVVYQSDRFNIMKYIKGERITYEQYHKLSEKEKDALAYDEATFLKELHSIEIDCSVSLFSDALVNKKDKFLQDKKLLISILEKEQLLTDEMLEHIETIYENILNNAVLFKYTPCLVHNDFSANNMIFRNNRLFGVIDFGDFNVGDPDNDFLCLLDCSTDDFGKEFGRKVLKYYQHKAPEVAERKAELNDVYWSIDQIIYGYERKDREMLIKGVSELLQTQAEMFIF
- soluble on expression in E. coli: soluble

Reference: the DeepSol protein solubility set
